Experimental data: the supplement of paper PMC7877785
± gives the uncertainty stated by the source.

Experiment: self-splicing fitness, log relative to wild type (ln ratio); higher = more splicing; Tetrahymena group I intron in knt gene, E. coli kanamycin selection, DiMSum; sequences stand for … in CUCUCU…GGAGGGAAAAGUUAUCAGGCAUGCACCUGGUAGCUAGUCUUUAAACCAAUAGAUUGCAUCGGUUUAAAAGGCAAGACCGUCAAAUUGCGGGAAAGGGGUCAACAGCCGUUCAGUACCAAGUCUCAGGGGAAACUUUGAGAUGGCCUUGCAAAGGGUAUGGUAAUAAGCUGACGGACAUGGUCCUAACCACGCAGCCAAGUCCUAAGUCAACAGAUCUUCUGUUGAUAUGGAUGCAGUUCACAGACUAAAUGUCGGUCGGGGAAGAUGUAUUCUUCUCAUAAGAUAUAGUCGGACCUCUCCUUAAUGGGAGCUAGCGGAUGAAGUGAUGCAACACUGGAGCCGCUGGGAACUAAUUUGUAUGCGAAAGUAUAUUGAUUAGUUUUGGAGUACUCGUGGUCG
Procedure, shortened: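 Six replicate transformations of E. coli BL21(DE3) with a pET-22b(+) library were grown overnight at 37°C or 30°C. The library randomised all eight P1ex-region intron nucleotides, the intron lying in the knt kanamycin-resistance gene, and plates were LB agar with or without 25 μg/mL kanamycin plus 100 μg/mL carbenicillin, 50 μM IPTG and 0.2% rhamnose. Pooled colonies were amplicon-sequenced on an Illumina HiSeq 2500, and fitness is the DiMSum error-weighted combination of wild-type-normalised replicate fold changes, kanamycin versus none.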

Sequence | self-splicing fitness (ln) (30 °C) | self-splicing fitness (ln) (37 °C)
GCCGAGCAAUAUUACGUUGC | -3.96 ± 0.25 | -2.73 ± 0.22
GCCGAGCAAUAUUACGUUUA | -2.56 ± 0.17 | 0.181 ± 0.12
GCCUAGCAAUAUUACGACAG | -3.52 ± 0.29 | -2.82 ± 0.28
GCCUAGCAAUAUUACGAGUG | -2.5 ± 0.11 | -0.934 ± 0.099
GCCUAGCAAUAUUACGAUCA | -2.27 ± 0.27 | -2.22 ± 0.18
GCCUAGCAAUAUUACGAUCG | -2.05 ± 0.15 | -1.36 ± 0.18
GCCUAGCAAUAUUACGAUUA | -3.39 ± 0.29 | -1.63 ± 0.18
GCCUAGCAAUAUUACGCACU | -0.602 ± 0.083 | 0.143 ± 0.078
GCCUAGCAAUAUUACGCAGC | -4.41 ± 0.36 | -1.52 ± 0.19
GCCUAGCAAUAUUACGCCCA | -2.69 ± 0.25 | -0.792 ± 0.2
GCCUAGCAAUAUUACGCGAA | -2.72 ± 0.18 | -1.64 ± 0.14
GCCUAGCAAUAUUACGCGUG | -4.17 ± 0.42 | -0.758 ± 0.17
GCCUAGCAAUAUUACGCGUU | -0.166 ± 0.068 | 0.243 ± 0.075
GCCUAGCAAUAUUACGCUAG |  | -2.47 ± 0.3
GCCUAGCAAUAUUACGCUCC | -1.64 ± 0.28 | 0.265 ± 0.2
GCCUAGCAAUAUUACGGAAU | -1.23 ± 0.074 | -0.307 ± 0.093
GCCUAGCAAUAUUACGGCCA | -1.81 ± 0.33 | -1.52 ± 0.35
GCCUAGCAAUAUUACGUACG | -2.67 ± 0.23 | -1.52 ± 0.24
GCCUAGCAAUAUUACGUGCU | -2.06 ± 0.074 | -1.17 ± 0.084
GCCUAGCAAUAUUACGUGGU | -3.71 ± 0.22 | -2.23 ± 0.25
GCCUAGCAAUAUUACGUGUA | -1.55 ± 0.086 | -0.545 ± 0.088
GCCUAGCAAUAUUACGUGUU | -0.926 ± 0.042 | 0.15 ± 0.055
GCCUAGCAAUAUUACGUUUC | -2.03 ± 0.073 | -0.802 ± 0.079
GCGAAGCAAUAUUACGAAUA | -2.34 ± 0.19 | -1.73 ± 0.24

Sequence | self-splicing fitness (ln) (30 °C) | self-splicing fitness (ln) (37 °C)
GCGAAGCAAUAUUACGAGUA | -2.13 ± 0.3 | -1.28 ± 0.19
GCGAAGCAAUAUUACGAUCU | -1.09 ± 0.066 | -0.73 ± 0.079
GCGAAGCAAUAUUACGGCAC | 0.112 ± 0.13 | 0.387 ± 0.17
GCGAAGCAAUAUUACGGUUA | 0.0459 ± 0.22 | -0.871 ± 0.19
GCGAAGCAAUAUUACGUCGG | -2.61 ± 0.21 | -0.565 ± 0.25
GCGAAGCAAUAUUACGUGCA | -1.21 ± 0.13 | -0.452 ± 0.097
GCGAAGCAAUAUUACGUGGC | -3.33 ± 0.39 | -2.35 ± 0.44
GCGAAGCAAUAUUACGUGUA | -1.88 ± 0.093 | -1.09 ± 0.072
GCGAAGCAAUAUUACGUGUC | -4.67 ± 0.46 | -3.21 ± 0.33
GCGAAGCAAUAUUACGUUAC |  | -2.72 ± 0.43
GCGAAGCAAUAUUACGUUCC | -2.43 ± 0.37 | -2.29 ± 0.44
GCGCAGCAAUAUUACGAAUA | -2.09 ± 0.2 | -1.02 ± 0.14
GCGCAGCAAUAUUACGACAG | -3.49 ± 0.17 | -3.05 ± 0.18
GCGCAGCAAUAUUACGACCC | 0.715 ± 0.26 | 0.34 ± 0.27
GCGCAGCAAUAUUACGAUAG | -2.97 ± 0.16 | -0.857 ± 0.12
GCGCAGCAAUAUUACGAUCA | -1.5 ± 0.14 | -0.594 ± 0.15
GCGCAGCAAUAUUACGAUGG | -1.42 ± 0.11 | 0.113 ± 0.16
GCGCAGCAAUAUUACGAUUA | -1.02 ± 0.13 | -1.48 ± 0.13
GCGCAGCAAUAUUACGCCAU | -3.8 ± 0.38 | -1.84 ± 0.3
GCGCAGCAAUAUUACGCCUC | 0.178 ± 0.29 | -1.24 ± 0.29
GCGCAGCAAUAUUACGCUAA | -1.42 ± 0.085 | -1.06 ± 0.11
GCGCAGCAAUAUUACGCUUA | -0.793 ± 0.062 | -0.338 ± 0.067
GCGCAGCAAUAUUACGGAGC | -2.35 ± 0.26 | -2.38 ± 0.49
GCGCAGCAAUAUUACGGAUG | -1.72 ± 0.1 | -1.39 ± 0.12
